B1: Qars (protein, UniProt Q8BML9 2-775, looked up)
Glutamine--tRNA ligase: ATPDSLALFTGLGLSENKARETLKNEALSTQLREAATQAHQILGSTIDKATGVLLYDLVSRLRDTRRRSFLVSYIANKKIHTGLQLSAALEYVRSHPQDPIDTKDFEQECGVGVVVTPEQIEEAVESTINKHQLQLLAERYRFNMGLLMGEARAALRWADGKMIKNEVDMQVLHLLGPKMEADLVKKPKVAKARLEETDRKTAKDVVEKGEVAGQTLSLMEQLRGEALKFHKPGENYKTPGYVITPYTMDLLKQHLEITGGQVRTRFPPEPNGILHIGHAKAINFNFGYAKANNGICFLRFDDTNPEKEEAKFFTAIYDMVTWLGYTPYKVTYASDYFDQLYAWAVELIHGGLAYVCHQRVEELKGHNPLPSPWRDRPKEESLLLFEAMRKGKFAEGEATLRMKLVMEDGKMDPVAYRVKYTPHHRTGDKWCIYPTYDYTHCLCDSIEHITHSLCTKEFQARRSSYFWLCNALKVYCPVQWEYGRLNLHYAVVSKRKILQLVAAGAVRDWDDPRLFTLTALRRRGFPPEAINNFCARVGVTVAQTTMEPHLLEACVRDVLNDAAPRAMAVLEPLQVVITNFPAPKPLDIRVPNFPADETKGFHQVPFASTVFIERSDFKEESEPGYKRLASGQPVGLRHTGYVIELQNIVRGSSGCVERLEVTCRRADAGEKPKAFIHWVSQPLVCEIRLYECLFQHKNPEDPVEVPGGFLSDLNPASLQVVEGALVDCSVALAKPFDKFQFERLGYFSVDPDSHQGQIVFNRTVTLKEDPGKI
B2: Sec23a (protein, UniProt Q01405 2-765, looked up)
Protein transport protein …: TTYLEFIQQNEERDGVRFSWNVWPSSRLEATRMVVPVAALFTPLKERPDLPPIQYEPVLCSRTTCRAVLNPLCQVDYRAKLWACNFCYQRNQFPPTYAGISELNQPAELLPQFSSIEYVVLRGPQMPLIFLYVVDTCIEDEDLQALKESMQMSLSLLPPTALVGLITFGRMVQVHELGCEGISKSYVFRGTKDLSAKQLQEMLGLSKVPVTQATRGPQVQQPPPSNRFLQPVQKIDMNLTDLLGELQRDPWPVPQGKRPLRSSGVALSIAVGLLECTFPNTGARIMMFIGGPATQGPGMVVGDELKTPIRSWHDIEKDNAKYVKKGTKHFEALANRAATTGHVIDIYACALDQTGLLEMKCCPNLTGGYMVMGDSFNTSLFKQTFQRVFTKDIHGQFKMGFGGTLEIKTSREIKISGAIGPCVSLNSKGPCVSENEIGTGGTCQWKICGLSPTTTLAIYFEVVNQHNAPIPQGGRGAVQFVTQYQHSSGQRRIRVTTIARNWADAQTQIQNIAASFDQEAAAILMARLAIYRAETEEGPDVLRWLDRQLIRLCQKFGEYHKDDPNSFRFSETFSLYPQFMFHLRRSPFLQVFNNSPDESSYYRHHFMRQDLTQSLIMIQPILYAYSFSGPPEPVLLDSSSILADRILLMDTFFQILIYHGETIAQWRKSGYQDMPEYENFRHLLQAPVDDAQEILHSRFPMPRYIDTEHGGSQARFLLSKVNPSQTHNNMYAWGQESGAPILTDDVSLQVFMDHLKKLAVSSAA
B3: Ssbp1 (protein, UniProt Q9CYR0 17-152, looked up)
Single-stranded DNA-binding …: ESEVASSLVLERSLNRVQLLGRVGQDPVMRQVEGKNPVTIFSLATNEMWRSGDSEVYQMGDVSQKTTWHRISVFRPGLRDVAYQYVKKGARIFVEGKVDYGEYMDKNNVRRQATTIIAGKKLVVHSVSGCSLEGLA
B4: Plaa (protein, UniProt P27612 1-794, looked up)
Phospholipase A-2-activating …: MASGASRYRLSCSLPGHELDVRGLVCCLYPPGAFVSVSRDRTTRLWAPDSPNRGFTEMHCMSGHSNFVSCVCIIPSSDIYPHGLIATGGNDHNICIFSLDSPMPLYILKGHKDTVCSLSSGKFGTLLSGSWDTTAKVWLNDKCMMTLQGHTAAVWAVKILPEQGLMLTGSADKTIKLWKAGRCERTFLGHEDCVRGLAILSETEFLSCANDASIRRWQITGECLEVYFGHTNYIYSISVFPNSKDFVTTAEDRSLRIWKHGECAQTIRLPAQSIWCCCVLENGDIVVGASDGIIRVFTESEERTASAEEIKAFERELSQATIDSKTGDLGDINAEQLPGREHLSEPGTREGQTRLIRDGERVEAYQWSVSDGRWIKIGDVVGSSGANQQTSGKVLYEGKEFDYVFSIDVNEGGPSYKLPYNVSDDPWLVAYNFLQKNDLNPMFLDQVAKFIIDNTKGQTLGLGNTSFSDPFTGGGRYVPGTSGPSNTVQTADPFTGAGRYMPGSAGMDTTMTGVDPFTGNSAYRSAASKTVNIYFPKKEALTFDQANPTQILGKLKELNGTAPEEKKLTEDDLVLLEKILSLICNNSSEKPTAQQLQILWKAINWPEDIVFPALDILRLSIKHPNVNENFCNEKGDQFSSHLINLLNPKGKPANQLLALRTFCNCFVSQAGQKLMMSQRESLMSHAIELKSGSNKNIHIALATLTLNYSVCFHKDHNIEGKAQCLSVISTILEVVQDLEATFRLLVALGTLISDDSNAIQLAKSLGVDSQIKKYVSVSEPAKVSECCRLVLHLL
B5: Hnrnpf (protein, UniProt Q9Z2X1 1-415, looked up)
Heterogeneous nuclear …: MMLGPEGGEGYVVKLRGLPWSCSIEDVQNFLSDCTIHDGVAGVHFIYTREGRQSGEAFVELESEDDVKLALKKDRESMGHRYIEVFKSHRTEMDWVLKHSGPNSADSANDGFVRLRGLPFGCTKEEIVQFFSGLEIVPNGITLPVDPEGKITGEAFVQFASQELAEKALGKHKERIGHRYIEVFKSSQEEVRSYSDPPLKFMSVQRPGPYDRPGTARRYIGIVKQAGLDRMRSGAYSAGYGGYEEYSGLSDGYGFTTDLFGRDLSYCLSGMYDHRYGDSEFTVQSTTGHCVHMRGLPYKATENDIYNFFSPLNPVRVHIEIGPDGRVTGEADVEFATHEEAVAAMSKDRANMQHRYIELFLNSTTGASNGAYSSQVMQGMGVSAAQATYSGLESQSVSGCYGAGYSGQNSMGGYD
B6: Dars (protein, UniProt Q922B2 1-501, looked up)
Aspartate--tRNA ligase, …: MPSTNASRKGQEKPREIVDAAEDYAKERYGISSMIQSQEKPDRVLVRVKDLTVQKADDVVWVRARVHTSRAKGKQCFLVLRQQQFNVQALVAVGDHASKQMVKFAANINKESIIDVEGVVRKVNQKIGSCTQQDVELHVQKIYVISLAEPRLPLQLDDAIRPEVEGEEDGRATVNQDTRLDNRVIDLRTSTSQAIFRLQSGICHLFRETLINKGFVEIQTPKIISAASEGGANVFTVSYFKNNAYLAQSPQLYKQMCICADFEKVFCIGPVFRAEDSNTHRHLTEFVGLDIEMAFNYHYHEVVEEIADTLVQIFKGLQERFQTEIQTVSKQFPCEPFKFLEPTLRLEYCEALAMLREAGVEMDDEEDLSTPNEKLLGRLVKEKYDTDFYVLDKYPLAVRPFYTMPDPRNPKQSNSYDMFMRGEEILSGAQRIHDPQLLTERALHHGIDLEKIKAYIDSFRFGAPPHAGGGIGLERVTMLFLGLHNVRQTSMFPRDPKRLTP
B7: Fth1 (protein, UniProt P09528 1-182, looked up)
Ferritin heavy chain: MTTASPSQVRQNYHQDAEAAINRQINLELYASYVYLSMSCYFDRDDVALKNFAKYFLHQSHEEREHAEKLMKLQNQRGGRIFLQDIKKPDRDDWESGLNAMECALHLEKSVNQSLLELHKLATDKNDPHLCDFIETYYLSEQVKSIKELGDHVTNLRKMGAPEAGMAEYLFDKHTLGHGDES
B8: Ipo11 (protein, UniProt Q8K2V6 1-975, looked up)
Importin-11: MDLNSASSVVLQVLTQATSQDTAVLKPAEEQLKQWETQPGFYSVLLNIFTNHTLDINVRWLAVLYFKHGIDRYWRRVAPHALSEEEKSTLRAGLITNFNEPINQIATQIAVLIAKVARLDCPRQWPELIPTLVESVKVQDDLRQHRALLTFYHVTKTLASKRLAADRKLFYDLASGIYNFACSLWNHHTDTFLQHVSSGNEAAVLSSLERTLLSLKVLRKLTVNGFVEPHKNMEVMGFLHGIFERLKQFLECSRSIGTDNVCRDRLEKTIILFTKVLLDFLDQHPISFTPLIQRSLEFSVSYVFTEVGEGVTFERFIVQCMNLIKMIVKNYAYKPSKNFEDSSPETLEAHKIKMAFFTYPTLTEICRRLVSHYFLLTEEELTMWEEDPEGFTVEETGGDSWKYSLRPCTEVLFIDIFHEYNQTLTPVLLEMMQTLEGPTNVEDMNALLIKDAVYNAVGLAAFELFDSVDFDQWFKTQLLPELQVSHNRYKPLRRRVIWLIGQWISVKFKSDLRPMLYEAICNLLQDQDLVVRIETATTLKLTVDDFEFRTDQFLPYLETMFTLLFQLLQQVTECDTKMHVLHVLSCVIERVNVQIRPYVGCLVQYLPLLWKQSEEHNMLRCAILTTLIHLVQGLGADSKNLYPFLLPVIQLSTDVSQPPHVYLLEDGLELWLVTLENSPCVTPELLRIFQNMSPLLELSSENLRTCFKIINGYIFLSSTEFLQTYAAGLCQSFYELLPEITTEGQVQVLKVVENALKVNPVLGPQMFQRILPCVFRGVIEGERYPVVMSIYLAVMGRVLLQNTSFFSSLLNEMGHEFNQEMDQLLGNVIEMWVDRMDNITQPERKKLSALALLSLLPSDNSVIQDKFCGIINISVEALHDVMTEDPETRTYKDCMLMSQHEEPKVTEDEEPPTEQDKRKKMLALKDPVHTVSLQQFIYEKLKAQQEILGEQGFQSLMETVDTEIVTQLQEFLQGF

The molecules below were run on DYT-TOR1A MEF EVs (assay: Quantitative LC-MS/MS proteomics of EVs from drug-treated DYT-TOR1A MEF cultures (ritonavir, salubrinal)). Conditions: EV protein abundance, DYT + RTV (ritonavir) vs DYT, direction compared with DYT/WT.
Format: cell-based, mouse
Design: key to RTV Corrective Direction / RTV Corrective Direction, Grwd1 / RTV Corrective Direction, Srrm2 / RTV Corrective Direction, Rbm17 / RTV Corrective Direction, Dcaf8 / RTV Corrective Direction, Edil3 / RTV Corrective Direction, Timp3 / RTV Corrective Direction, Heatr3 / RTV Corrective Direction, Brd4 / RTV Corrective Direction, P3h4 / RTV Corrective Direction, Pacsin3 / RTV Corrective Direction, Naa50 / RTV Corrective Direction, Lpar6 / RTV Corrective Direction, Ndrg1 / RTV Corrective Direction, Kntc1 / RTV Corrective Direction, Cdk11b / RTV Corrective Direction, Sumo1 / RTV Corrective Direction, Lsm4 / RTV Corrective Direction, Hmga2 / RTV Corrective Direction, Cstf1 / RTV Corrective Direction, Tes / RTV Corrective Direction, Sbno1 / RTV Corrective Direction, Unc119b / RTV Corrective Direction, Cfdp1 / RTV Corrective Direction, Sec61b: YES = protein abundance effect opposite to DYT/WT

Molecule	RTV Corrective Direction
B1	YES
B2	YES
B3	YES
B4	YES
B5	YES
B6	YES
B7	YES
B8	YES

Same assay, conditions: EV protein abundance, ritonavir (RTV)-treated DYT vs DYT

Molecule	DYT + RTV/DYT Cohen's d
B1	7.21
B2	8.14
B3	3.30
B4	8.69
B5	8.04
B6	9.32
B7	0.31
B8	9.75

Each molecule was assayed on WT MEF EVs (assay: Quantitative LC-MS/MS proteomics of EVs from ISRIB-treated WT MEF cultures). Conditions: EV protein abundance, ISRIB-treated WT vs WT.
Format: cell-based, mouse
Design: key to ISRIB and DYT Parallel Direction / ISRIB and DYT Parallel Direction, Ctdsp1 / ISRIB and DYT Parallel Direction, Pcdh19 / ISRIB and DYT Parallel Direction, Tspan7 / ISRIB and DYT Parallel Direction, Myo1e / ISRIB and DYT Parallel Direction, Plpp3 / ISRIB and DYT Parallel Direction, Sh3bp4 / ISRIB and DYT Parallel Direction, Dnajc7 / ISRIB and DYT Parallel Direction, Drg1 / ISRIB and DYT Parallel Direction, Maea: YES = protein abundance effect similar to DYT/WT

Molecule	WT + ISRIB/WT Cohen's d
B1	−2.14
B2	−0.95
B3	−1.49
B4	−2.39
B5	−0.18
B6	−1.13
B7	−3.46
B8	−1.97

Same assay, conditions: EV protein abundance, WT + ISRIB vs WT, direction compared with DYT/WT

Molecule	ISRIB and DYT Parallel Direction
B1	YES
B2	YES
B3	YES
B4	YES
B5	YES
B6	YES
B7	YES
B8	YES

Reference: patent US20260266848A1, “COMPOSITIONS AND METHODS FOR DIAGNOSING AND TREATING DYSTONIA” (Duke University, priority 2023, published 2026)
